Reference: patent US20030148956A1 (PROCTER AND GAMBLE, published 2003)
Ends that are not written are not given here.

T1: corticotropin releasing factor 2 receptor
T1 sequence (Q13324 whole entry, species assumed, looked up): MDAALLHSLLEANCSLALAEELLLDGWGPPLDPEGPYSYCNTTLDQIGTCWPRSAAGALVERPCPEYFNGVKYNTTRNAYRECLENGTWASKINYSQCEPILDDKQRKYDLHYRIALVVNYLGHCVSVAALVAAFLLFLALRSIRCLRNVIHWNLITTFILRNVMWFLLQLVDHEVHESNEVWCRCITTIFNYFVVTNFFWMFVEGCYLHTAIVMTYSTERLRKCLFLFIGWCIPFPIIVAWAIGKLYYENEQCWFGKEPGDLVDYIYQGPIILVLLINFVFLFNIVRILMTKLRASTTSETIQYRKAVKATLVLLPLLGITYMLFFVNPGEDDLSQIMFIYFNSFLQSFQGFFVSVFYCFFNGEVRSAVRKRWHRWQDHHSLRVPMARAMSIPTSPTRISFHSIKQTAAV


Assays:
[1] = biological target: T1, corticotropin releasing factor 2 …; assay: cell-based or functional assay
[2] = biological target: corticotropin releasing factor 1 receptor; assay: cell-based or functional assay

Binder	CRF2R EC50 [1]	CRF2R Emax % [1]	CRF1R EC50 [2]	CRF1R Emax % [2]
NDDPPISIDLPTYLLRNMIEMARIENEREQAGLNAKYLAEV-NH2 [SEQ ID NO 266]	100 nM	19.4%	1000 nM	4.45%
ZGPPISIDLPTWLLRKVIEIEKQEKEKQQAANNRLLLDTI (C-terminal amide) [SEQ ID NO 284]	100 nM	100%	1000 nM	27.7%
ZGPPISIDLPQILLRKVIEIEKQEKEKQQAANNRLLLDTI (C-terminal amide) [SEQ ID NO 293]	40.3 nM	87%	520 nM	95.3%
ZGPPISIDLPFQLLRKVIEIEKQEKEKQQAANNAELLAEI (C-terminal amide) [SEQ ID NO 272]	23.3 nM	100%	1000 nM	51.1%
ZGPPISIDLPYWLLRKMIEIEKQEKEKQQAANNARLLARI (C-terminal amide) [SEQ ID NO 289]	12.2 nM	97.3%	1000 nM	69.5%
ZGPPISIDLPFQLLRKVIEIEKQEKEKQQAANNAKLLAKI (C-terminal amide) [SEQ ID NO 274]	13.8 nM	100%	508 nM	80.9%
ZGPPISIDLPIFLLRKVIEIEKQEKEKQQAANNARLLARI (C-terminal amide) [SEQ ID NO 281]	100 nM	78.8%	1000 nM	12.2%
ZGPPISIDLPFQLLRKVIEIEKQEKEKQQAANNAQLLAHI (C-terminal amide) [SEQ ID NO 273]	31.3 nM	100%	1000 nM	59.3%
ZGPPISIDLPFQLLRKVIEIEKQEKEKQQAANNAQLLAQI (C-terminal amide) [SEQ ID NO 276]	22.1 nM	100%	1000 nM	75.7%
ZGPPISIDLPFQLLRKVIEIEKQEKEKQQAANNANLLANI (C-terminal amide) [SEQ ID NO 275]	46.6 nM	100%	1000 nM	38.3%
ZGPPISIDLPFQLLRKVIEIEKQEKEKQQAANNARLLDTI (C-terminal amide) [SEQ ID NO 278]	19.6 nM	100%	1000 nM	48.7%
ZGPPISIDLPTWLLRKVIEIEKQEKEKQQAANNARLLARI (C-terminal amide) [SEQ ID NO 291]	100 nM	63.8%	1000 nM	4.75%
ZGPPISIDLPTWLLRKMIEIEKQEKEKQQAANNARLLARI (C-terminal amide) [SEQ ID NO 292]	100 nM	86.1%	1000 nM	7%
ZGPPISIDLPFQLLRKVIEIEKQEKEKQQAANNARLLARI (C-terminal amide) [SEQ ID NO 279]	13.1 nM	100%	1000 nM	93%
ZGPPISIDLPIFLLRKVIEIEKQEKEKQQAANNALLLATI (C-terminal amide) [SEQ ID NO 280]	100 nM	82.3%	1000 nM	11.8%
ZGPPISIDLPFQLLRKVIEIEKQEKEKQQAANNAHLLAHI (C-terminal amide) [SEQ ID NO 277]	28.2 nM	100%	1000 nM	39.9%
ZGPPISIDLPIILLRKMIEIEKQEKEKQQAANNARLLARI (C-terminal amide) [SEQ ID NO 290]	100 nM	100%	1000 nM	6.4%
ZGPPISIDLPQILLRKVIEIEKQEKEKQQAANNARLLARI (C-terminal amide) [SEQ ID NO 294]	100 nM	100%	1000 nM	13.6%

Binder	CRF2R EC50 [1]	CRF2R Emax % [1]	CRF1R EC50 [2]	CRF1R Emax % [2]
ZGPPISIDLPYQLLRKVIEIEKQEKEKQQAANNARLLARI (C-terminal amide) [SEQ ID NO 286]	13.5 nM	92.5%	1000 nM	19.2%
ZGPPISIDLPIILLRKVIEIEKQEKEKQQAANNARLLARI (C-terminal amide) [SEQ ID NO 295]	55 nM	67.6%	1000 nM	5.3%
ZGPPISIDLPYQLLRKVIEIEKQEKEKQQAANNRLLLDTI (C-terminal amide) [SEQ ID NO 283]	10.6 nM	72%	635 nM	100%
ZGPPISIDLPQILLRKMIEIEKQEKEKQQAANNARLLARI (C-terminal amide) [SEQ ID NO 285]	13.9 nM	97.1%	1000 nM	11.1%
ZGPPISIDLPIFLLRKMIEIEKQEKEKQQAANNARLLARI (C-terminal amide) [SEQ ID NO 282]	25.8 nM	60.8%	1000 nM	21.8%
NDDPPISIDLPLYLLRNMIEMARIENEREQAGLNAKYLAEV-NH2 [SEQ ID NO 271]	48.1 nM	69%	815 nM	80.7%
NDDPPISIDLPFHLLRNMIEMARIENEREQAGLNAKYLAEV-NH2 [SEQ ID NO 262]	100 nM	92.2%	408 nM	100%
NDDPPISIDLPFYLLRNMIEMARIENEREQAGLNAKYLAEV-NH2 [SEQ ID NO 261]	100 nM	95.3%	274 nM	100%
ZGPPISIDLPYQLLRKMIEIEKQEKEKQQAANNARLLAR (C-terminal amide) [SEQ ID NO 287]	11.3 nM	100%	1000 nM	
ZGPPISIDLPYQLLRKMIEIEKQEKEKQQAANNARLLAR (C-terminal amide) [SEQ ID NO 288]	14.7 nM	100%	838 nM	
NDDPPISIDLPLQLLRNMIEMARIENEREQAGLNAKYLAEV-NH2 [SEQ ID NO 270]	100 nM	19.3%	1000 nM	7.85%
NDDPPISIDLPQYLLRNMIEMARIENEREQAGLNAKYLAEV-NH2 [SEQ ID NO 265]	100 nM	23.4%	1000 nM	9.3%
NDDPPISIDLPYYLLRNMIEMARIENEREQAGLNAKYLAEV-NH2 [SEQ ID NO 267]	100 nM	44.2%	1000 nM	22.8%
NDDPPISIDLPFFLLRNMIEMARIENEREQAGLNAKYLAEV-NH2 [SEQ ID NO 264]	100 nM	66.3%	704 nM	100%
NDDPPISIDLPLILLRNMIEMARIENEREQAGLNAKYLAEV-NH2 [SEQ ID NO 269]	100 nM	77.3%	1000 nM	44.3%
NDDPPISIDLPLLLLRNMIEMARIENEREQAGLNAKYLAEV-NH2 [SEQ ID NO 268]	100 nM	59%	1000 nM	14.2%
NDDPPISIDLPFLLLRNMIEMARIENEREQAGLNAKYLAEV-NH2 [SEQ ID NO 260]	100 nM	89.3%	834 nM	89.7%
DNPSLSIDLPYYLLRTLLELARTQSQRERAEQNAIIFASV-NH2 [SEQ ID NO 263]	36.2 nM	93%	802 nM	72%
